Measurements from US20040038855A1 (priority 1999, published 2004).
Ends that are not written are not given here.

Key:
human MCH1 receptor = human MCH1 receptor (Homo sapiens, UniProt Q99705); assay: Binding of [125I]Phe13,Tyr19-MCH on MCH1-transfected Cos-7 cell membranes; design: expressed in transfected cells; host or cells: COS-7; conditions: 0.1 nM radioligand
Description: For binding assays, pellets of transfected cells are suspended in ice-cold buffer (20 mM Tris.HCl, 5 mM EDTA, pH 7.4) and homogenized by sonication for 7 sec. The cell lysates are centrifuged at 200×g for 5 min at 4° C. The supernatants are then centrifuged at 40,000×g for 20 min at 4° C. The resulting pellets are washed once in the homogenization buffer and suspended in binding buffer (see methods for radioligand binding). Protein concentrations are determined by the method of Bradford (1976) using bovine serum albumin as the standard. Binding assays are usually performed immediately, however it is possible to prepare membranes in batch and store frozen in liquid nitrogen for future use.
MCH1 binding experiments with membranes (20-40 μg membrane protein) from transfected cells are performed with 0.1 nM [^125I]Phe^13-Tyr^19-MCH (Custom labeled by NEN) using incubation buffer consisting of 50 mM Tris pH 7.4, 10MM MgCl2, 2 μg/ml aprotonin, 0.5 mM PMSF and 50 μg/ml bacitracin. Binding is performed at 25° C. for 1 hr. Incubations are terminated by rapid vacuum filtration over GF/C glass fiber filters, presoaked in 5% PEI using 50 mM Tris pH 7.4 containing 0.01% triton X-100 as wash buffer.
Specific [^125I]Phe^13-Tyr^19-MCH binding was about 70% of total binding at a radioligand concentration of 0.1 nM (FIG. 10).

[1] = test system: MCH binding sites of G4F-7 cells; conditions: cited from earlier work

Chain of human MCH1 receptor (Q99705 whole entry): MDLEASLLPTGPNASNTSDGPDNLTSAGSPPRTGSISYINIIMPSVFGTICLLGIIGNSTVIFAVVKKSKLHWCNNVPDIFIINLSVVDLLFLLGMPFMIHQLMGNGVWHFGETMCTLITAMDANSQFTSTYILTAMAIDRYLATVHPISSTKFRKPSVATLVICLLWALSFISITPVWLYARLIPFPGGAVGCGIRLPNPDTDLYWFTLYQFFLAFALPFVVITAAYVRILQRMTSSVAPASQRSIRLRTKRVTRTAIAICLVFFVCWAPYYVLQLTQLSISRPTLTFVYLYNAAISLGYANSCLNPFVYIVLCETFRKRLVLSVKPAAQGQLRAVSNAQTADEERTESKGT

**Q.** Which “specific binding as share of total binding” value (human MCH1 receptor) does the source give for “[^125I]Phe^13-Tyr^19-MCH: radioiodinated MCH analogue, custom labeled by NEN, radioligand of the MCH1 binding experiments” here?
**A.** about 70 % of total binding

**Q.** What about the specific binding (human MCH1 receptor; MCH1-transfected cells) of the same substance?
**A.** about 80 fmol/mg membrane protein

**Q.** For “rat ANF: rat ANF, weakly inhibited binding of the radioiodinated MCH analogue (SLRRSSCFGGRIDRIGAQSGLGCNSFRY; ends and bridges not checked; cysteine pairing not given here; UniProt P01161 123-150, looked up)”, which Ki ([1]; inhibition of binding of the radioiodinated ligand) is on record?
**A.** 0.116 µM

**Q.** With α-MSH as the substance, how does the “inhibition of binding of the radioiodinated ligand” value [1] read?
**A.** not inhibited
